System: isolated pancreatic islets from mice
Test: RNAseq gene expression in isolated pancreatic islets of GCGR antibody treated mice (Table 5)
Assay type: in vivo, mouse
Details: isolated islets, 10 mg/kg, 21 days
Method: Mouse islets were isolated by density gradient separation after perfusing pancreas with Liberase TL (Roche, Indianapolis) through the common bile duct. Following a 13 min digestion at 37° C., the pancreas solution was washed and filtered through a 400-μm wire mesh strainer and islets were separated by Histopaque gradient centrifugation (Sigma-Aldrich). Isolated islets were cultured overnight in RPMI-1640 medium supplemented with 10% (v/v) FBS, 10 mM HEPES, 50 μM β-mercaptoethanol, 1.0 mM sodium-pyruvate, 100 U/mL penicillin and 100 μg/mL streptomycin at 37° C. with a 5% CO2 in air atmosphere.
Total RNA was purified from all samples using MagMAX™-96 for Microarrays Total RNA Isolation Kit (Ambion by Life Technologies) according to manufacturer's specifications. Genomic DNA was removed using MagMAX™Turbo™DNase Buffer and TURBO DNase from the MagMAX kit listed above (Ambion by Life Technologies). mRNA was purified from total RNA using Dynabeads® mRNA Purification Kit (Invitrogen). Strand-specific RNA-seq libraries were prepared using ScriptSeq™ mRNA-Seq Library Preparation Kit (Epicentre). Twelve-cycle PCR was performed to amplify libraries. Sequencing was performed on Illumina HiSeq®2000 (Illumina) by multiplexed single-read run with 33 cycles.
Raw sequence data (BCL files) were converted to FASTQ format via Illumina Casava 1.8.2. Reads were decoded based on their barcodes and read quality was evaluated with FastQC (http://www.bioinformatics.babraham.ac.uk/projects/fastqc/). Reads were mapped to the mouse transcriptome (NCBI GRCh37) using CLC Genomics Workbench Version 7.0 (CLCbio) or TopHat2 (Version 2.0.10) allowing two mismatches. Reads mapped to the exons of a gene were summed at the gene level. To identify differentially expressed genes, the statistical significance (p-value) of the differential expressions was assessed with DESeq package (version 1.6 or 2.0). […]

B1: α-GCGR: potent monoclonal GCGR blocking antibody, HCVR/LCVR SEQ ID NOs: 86/88 (antibody, V domains shown)
VH: EVQLVESGGGLVQPGGSLRLSCAASGFTFSNYLMNWVRQAPGKGLEWLANIQEDGIEKYYVDSVKGRFTISRDNAKNSLYLQMNSLRAEDTAVYYCAREPSHYDILTGYDYYYGMDVWGQGTTVTVS
VL: DIQMTQSPSSLSASVGDRVTITCRASQGIRNDLGWYQQKPGKAPKRLIYAASSLQSGVPSRFSGSGSGTEFILTVSSLQPEDFATYYCLQYNSNPFTFGPGTKVDIK
- 1700086L19Rik RPKM (gene 1700086L19Rik): 119.24 RPKM
- 1810011O10Rik RPKM (gene 1810011O10Rik): 5.88 RPKM
- 1810041L15Rik RPKM (gene 1810041L15Rik): 3.14 RPKM
- 4930539E08Rik RPKM (gene 4930539E08Rik): 5.64 RPKM
- 9030617O03Rik RPKM (gene 9030617O03Rik): 5.31 RPKM
- AW551984 RPKM (gene AW551984): 5.27 RPKM
- Acta1 RPKM (gene Acta1): 1.05 RPKM
- Agpat4 RPKM (gene Agpat4): 4.89 RPKM
- Agt RPKM (gene Agt): 22.33 RPKM
- Ang RPKM (gene Ang): 69.38 RPKM
- Ano1 RPKM (gene Ano1): 1.26 RPKM
- Anxa3 RPKM (gene Anxa3): 11.67 RPKM
- Anxa13 RPKM (gene Anxa13): 0.65 RPKM
- Apoa2 RPKM (gene Apoa2): 10.76 RPKM
- Apod RPKM (gene Apod): 2.75 RPKM
- Apol7a RPKM (gene Apol7a): 0.28 RPKM
- Arg1 RPKM (gene Arg1): 59.62 RPKM
- Arx RPKM (gene Arx): 6.42 RPKM
- Asb11 RPKM (gene Asb11): 1.00 RPKM
- Avpr1b RPKM (gene Avpr1b): 4.45 RPKM
- Basp1 RPKM (gene Basp1): 11.31 RPKM
- Blnk RPKM (gene Blnk): 3.87 RPKM
- Bok RPKM (gene Bok): 1.31 RPKM
- Car9 RPKM (gene Car9): 0.79 RPKM
- Cdc42ep1 RPKM (gene Cdc42ep1): 1.77 RPKM
- Clec2d RPKM (gene Clec2d): 9.10 RPKM
- Clic6 RPKM (gene Clic6): 0.26 RPKM
- Clu RPKM (gene Clu): 481.69 RPKM
- Cnih2 RPKM (gene Cnih2): 1.98 RPKM
- Cobl RPKM (gene Cobl): 2.27 RPKM
- Ctse RPKM (gene Ctse): 1.73 RPKM
- Dbpht2 RPKM (gene Dbpht2): 27.59 RPKM
- Dmbt1 RPKM (gene Dmbt1): 10.80 RPKM
- Dpp6 RPKM (gene Dpp6): 8.00 RPKM
- Drc1 RPKM (gene Drc1): 4.67 RPKM
- Eda2r RPKM (gene Eda2r): 1.98 RPKM
- Eef1a2 RPKM (gene Eef1a2): 35.85 RPKM
- Ehf RPKM (gene Ehf): 10.90 RPKM
- Etv1 RPKM (gene Etv1): 33.99 RPKM
- F5 RPKM (gene F5): 1.71 RPKM
- Ffar4 RPKM (gene Ffar4): 5.88 RPKM
- Fgd3 RPKM (gene Fgd3): 0.83 RPKM
- Fgl2 RPKM (gene Fgl2): 37.91 RPKM
- Gamt RPKM (gene Gamt): 0.58 RPKM
- Gbp8 RPKM (gene Gbp8): 7.39 RPKM
- Gbp9 RPKM (gene Gbp9): 4.03 RPKM
- Gc RPKM (gene Gc): 153.00 RPKM
- Gcg RPKM (gene Gcg): 63254.16 RPKM
- Gcnt4 RPKM (gene Gcnt4): 3.02 RPKM
- Gfra1 RPKM (gene Gfra1): 3.43 RPKM
- Gfra3 RPKM (gene Gfra3): 8.18 RPKM
- Gm609 RPKM (gene Gm609): 6.28 RPKM
- Gm20554 RPKM (gene Gm20554): 2.33 RPKM
- Gng2 RPKM (gene Gng2): 7.35 RPKM
- Gpr119 RPKM (gene Gpr119): 15.35 RPKM
- Gpx3 RPKM (gene Gpx3): 638.48 RPKM
- Hspb1 RPKM (gene Hspb1): 10.32 RPKM
- Ifih1 RPKM (gene Ifih1): 10.68 RPKM
- Igsf23 RPKM (gene Igsf23): 0.40 RPKM
- Irx1 RPKM (gene Irx1): 5.96 RPKM
- Irx2 RPKM (gene Irx2): 8.92 RPKM
- Itgb4 RPKM (gene Itgb4): 1.65 RPKM
- Jchain RPKM (gene Jchain): 74.91 RPKM
- Kcna2 RPKM (gene Kcna2): 0.81 RPKM
- Kcnab3 RPKM (gene Kcnab3): 2.28 RPKM
- Kcnf1 RPKM (gene Kcnf1): 0.86 RPKM
- Kcnk3 RPKM (gene Kcnk3): 8.14 RPKM
- Klb RPKM (gene Klb): 4.59 RPKM
- Klhl13 RPKM (gene Klhl13): 5.34 RPKM
- Krt19 RPKM (gene Krt19): 26.52 RPKM
- Krt20 RPKM (gene Krt20): 0.65 RPKM
- Krt23 RPKM (gene Krt23): 2.17 RPKM
- Lamb3 RPKM (gene Lamb3): 1.16 RPKM
- Mafb RPKM (gene Mafb): 24.19 RPKM
- Mamld1 RPKM (gene Mamld1): 5.64 RPKM
- Mapk13 RPKM (gene Mapk13): 2.86 RPKM
- Matn2 RPKM (gene Matn2): 2.36 RPKM
- Ndst4 RPKM (gene Ndst4): 6.30 RPKM
- Necab2 RPKM (gene Necab2): 7.29 RPKM
- Nefm RPKM (gene Nefm): 6.35 RPKM
- Npr1 RPKM (gene Npr1): 3.07 RPKM
- Nptxr RPKM (gene Nptxr): 4.03 RPKM
- Nsg2 RPKM (gene Nsg2): 3.49 RPKM
- Ntn1 RPKM (gene Ntn1): 0.65 RPKM
- Nudt11 RPKM (gene Nudt11): 8.49 RPKM
- Nyap1 RPKM (gene Nyap1): 3.82 RPKM
- Ocrl RPKM (gene Ocrl): 37.04 RPKM
- Oit1 RPKM (gene Oit1): 4.78 RPKM
- Olfm3 RPKM (gene Olfm3): 3.59 RPKM
- Oxtr RPKM (gene Oxtr): 7.25 RPKM
- Pdk4 RPKM (gene Pdk4): 25.17 RPKM
- Peg10 RPKM (gene Peg10): 17.17 RPKM
- Pla2g2d RPKM (gene Pla2g2d): 5.69 RPKM
- Ptf1a RPKM (gene Ptf1a): 0.52 RPKM
- Ptprd RPKM (gene Ptprd): 4.67 RPKM
- Ptprg RPKM (gene Ptprg): 3.12 RPKM
- Rasd1 RPKM (gene Rasd1): 10.12 RPKM
- Rbms3 RPKM (gene Rbms3): 2.38 RPKM
- Rbp4 RPKM (gene Rbp4): 210.71 RPKM
- Rcn1 RPKM (gene Rcn1): 12.75 RPKM
- Rragb RPKM (gene Rragb): 33.15 RPKM
- Sema3e RPKM (gene Sema3e): 2.28 RPKM
- Serpinb6b RPKM (gene Serpinb6b): 1.59 RPKM
- Serpine2 RPKM (gene Serpine2): 10.10 RPKM
- Serping1 RPKM (gene Serping1): 82.99 RPKM
- Sftpd RPKM (gene Sftpd): 4.65 RPKM
- Sgce RPKM (gene Sgce): 10.55 RPKM
- Sh2d4a RPKM (gene Sh2d4a): 0.65 RPKM
- Sh3bgr RPKM (gene Sh3bgr): 3.39 RPKM
- Slc38a3 RPKM (gene Slc38a3): 0.79 RPKM
- Slc38a5 RPKM (gene Slc38a5): 52.26 RPKM
- Smarca1 RPKM (gene Smarca1): 15.49 RPKM
- Spns2 RPKM (gene Spns2): 0.98 RPKM
- St8sia1 RPKM (gene St8sia1): 2.35 RPKM
- Syt16 RPKM (gene Syt16): 2.26 RPKM
- Tead2 RPKM (gene Tead2): 2.17 RPKM
- Tesc RPKM (gene Tesc): 4.72 RPKM
- Tmsb15b1 RPKM (gene Tmsb15b1): 28.28 RPKM
- Tspan1 RPKM (gene Tspan1): 1.40 RPKM
- Ttr RPKM (gene Ttr): 5356.49 RPKM
- Vnn1 RPKM (gene Vnn1): 0.42 RPKM
- Vwde RPKM (gene Vwde): 5.37 RPKM
- Wfdc16 RPKM (gene Wfdc16): 5.87 RPKM
- Wnk3 RPKM (gene Wnk3): 9.33 RPKM

From patent US20190248888A1, “METHODS OF LOWERING BLOOD GLUCOSE LEVELS” (Regeneron Pharmaceuticals, Inc., priority 2016, published 2019)
